From PMC7806223, “Structures of Rhodopseudomonas palustris RC-LH1 complexes with open or closed quinone channels” (Science Advances, 2021) come the findings set out here.

What all share (assay): cryo-EM structure; RC-LH1_(14)-W complex purified from the PufW-His strain; in IMAC buffer (20 mM tris-HCl pH 8.0, 200 mM NaCl, 0.03% β-DDM); 2.65 Å
What all share (details): both partners purified

In one test the target is T1, RC-M (PufM) (Rhodopseudomonas palustris CGA009, UniProt A0A4Z7 1-307).
T1 construct: reaction center M subunit (PufM) of Rhodopseudomonas palustris; also called subunit M; M polypeptide; source: endogenous, Rps. palustris CGA009 (ΔpufW and PufW-His strains); purified within RC-LH1 complexes from β-DDM-solubilized membranes

A further test concerns the target T2, RC-L (PufL) (Rhodopseudomonas palustris CGA009, UniProt O83005 1-277).
T2 construct: reaction center L subunit (PufL) of Rhodopseudomonas palustris; also called subunit L; L polypeptide; source: endogenous, Rps. palustris CGA009 (ΔpufW and PufW-His strains); purified within RC-LH1 complexes from β-DDM-solubilized membranes

The target in test [1] is T3, protein-W (PufW), C-terminally 10× His-tagged (Rhodopseudomonas palustris CGA009, UniProt Q6N1K3 1-102).
T3 construct: protein-W (PufW, RPA4402) of Rhodopseudomonas palustris, a 10.5-kDa protein with three transmembrane helices; C-terminal amino acids are unresolved in the map; also called PufW-His; RPA4402; source: Rps. palustris CGA009 PufW-His strain, expressed from the native pufW locus; purified within RC-LH1_(14)-W (Ni-NTA IMAC, DEAE, SEC); not shown: 10× His, C-terminal, kept
T3 sequence: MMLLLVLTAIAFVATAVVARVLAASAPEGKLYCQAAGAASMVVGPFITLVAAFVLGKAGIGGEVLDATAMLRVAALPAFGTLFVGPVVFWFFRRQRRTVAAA

B1: RC-H (PuhA) (natural protein, Rhodopseudomonas palustris CGA009, UniProt A0A4Z9 1-255, looked up)
chain: MQPGAYLDLAQVTLYVFWIFFAGLLFYLRREDKREGYPLVADAGSGTRLAKIGVPAPPDPKTYLLRGGATKTVPSTSNDRPNVALTPAAPWPGAPFVPTGNPFADGVGPGSYAQRADVPELGLDNLPIIVPLRAAKGMFLDPRDPNPVGMPVVGCDGVVGGTVTEVWVDRAEVLARYLEVEVAKSRKRVLLPVPFALINDPFGKVSVDAIRGDQFAGVPTTSKGDQVSKLEEDKICAYYGAGTLYATPLRSESLV
notes: reaction center H subunit (PuhA) of Rhodopseudomonas palustris; C-terminal amino acids are unresolved in the map; also called subunit H; source: endogenous, Rps. palustris CGA009 (ΔpufW and PufW-His strains); purified within RC-LH1 complexes from β-DDM-solubilized membranes
In the case of B1, the binding result with RC-M (PufM) and with RC-L (PufL) was “binds” in each case.

B2: LH1-β (PufB) (natural protein)
chain: not shown
notes: LH1-β (PufB) of Rhodopseudomonas palustris; mass spectrometry of wild-type RC-LH1: residues Ser2 to Ala53; resolved Gly4 to Tyr52 in RC-LH1_(16) and Ser5 to Tyr52 in RC-LH1_(14)-W, no density for 13 C-terminal residues; 14 copies in RC-LH1_(14)-W, 16 copies in RC-LH1_(16); The termini were found by mass spectrometry on mixed complexes of the wild-type strain; also called β-polypeptide; source: …
Take B2: the binding result in test [1] was “binds”.
